PMC7719180, “HDAC8-dependent deacetylation of PKM2 directs nuclear localization and glycolysis to promote proliferation in hepatocellular carcinoma” (Cell Death & Disease, 2020)

Target: T1, GST-PKM2 (GST fusion PKM2) (UniProt P14618 1-531)
T1 construct: Pyruvate kinase M2 (PKM2); also called recombinant GST- PKM2; source: E. coli BL21 (DE3), purified (Glutathione-Sepharose 4B)
Assay: pull-down; GST-PKM2 on glutathione-sepharose beads incubated with His-HDAC8 at 4 °C (overnight in the methods, 3 h in the legend); washed 5 times with PBST; SDS-PAGE and Coomassie Blue staining; GST-vector as control
Conditions: both partners purified

T1 sequence (P14618 whole entry, the tested form may be a part): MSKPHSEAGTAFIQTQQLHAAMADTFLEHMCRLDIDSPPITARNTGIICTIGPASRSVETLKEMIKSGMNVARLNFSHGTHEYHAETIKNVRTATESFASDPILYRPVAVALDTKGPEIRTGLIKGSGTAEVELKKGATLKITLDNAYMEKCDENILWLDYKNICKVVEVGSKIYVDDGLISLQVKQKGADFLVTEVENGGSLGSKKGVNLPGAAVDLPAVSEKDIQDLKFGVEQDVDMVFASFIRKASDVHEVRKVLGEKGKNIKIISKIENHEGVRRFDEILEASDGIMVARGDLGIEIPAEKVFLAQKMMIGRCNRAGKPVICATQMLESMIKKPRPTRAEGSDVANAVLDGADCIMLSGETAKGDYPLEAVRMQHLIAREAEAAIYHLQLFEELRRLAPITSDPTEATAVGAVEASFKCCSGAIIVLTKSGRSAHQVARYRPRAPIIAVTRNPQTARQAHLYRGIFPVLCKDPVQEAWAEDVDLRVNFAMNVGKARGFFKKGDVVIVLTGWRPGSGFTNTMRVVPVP

binding result: binds
B1: His-HDAC8 (His fusion HDAC8) (enzyme, UniProt Q9BY41 1-377, looked up)
chain: MEEPEEPADSGQSLVPVYIYSPEYVSMCDSLAKIPKRASMVHSLIEAYALHKQMRIVKPKVASMEEMATFHTDAYLQHLQKVSQEGDDDHPDSIEYGLGYDCPATEGIFDYAAAIGGATITAAQCLIDGMCKVAINWSGGWHHAKKDEASGFCYLNDAVLGILRLRRKFERILYVDLDLHHGDGVEDAFSFTSKVMTVSLHKFSPGFFPGTGDVSDVGLGKGRYYSVNVPIQDGIQDEKYYQICESVLKEVYQAFNPKAVVLQLGADTIAGDPMCSFNMTPVGIGKCLKYILQWQLATLILGGGGYNLANTARCWTYLTGVILGKTLSSEIPDHEFFTAYGPDYVLEITPSCRPDRNEPHRIQQILNYIKGNLKHVV
notes: Histone deacetylase 8 (HDAC8)
